From patent US20210238298A1

Target: CD86 mutant 1040 conjugated to an anti-CD40 antibody as part of a bispecific molecule (human)
Experiment: inhibition ELISA: CD86 mutant 1040 on an anti-CD40 antibody pre-incubated with the soluble CTLA-4 in a dilution series, mixture added to coated human CTLA-4 (the competitor)

CD86 mutant 1040 conjugated to an anti-CD40 antibody as part of a bispecific molecule (human), sequence (chain, as listed by the source limits assumed): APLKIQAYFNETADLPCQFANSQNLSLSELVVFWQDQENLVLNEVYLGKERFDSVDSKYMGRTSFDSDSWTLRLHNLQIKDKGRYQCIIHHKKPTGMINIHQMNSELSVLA

IC50 (read off the curve) | Substance
0.8 µg/mL | soluble murine CTLA-4 (R&D systems) (from UniProt P09793 36-162) (receptor)
1 µg/mL | CTLA4-Fc (Fitzgerald, #30R-CD152) (from UniProt P16410 38-152) (Fc fusion)
